Data reported in patent publication US20250320305A1.
One block for each binder: values may come before it.

Experiments:
[1] = biological target: biotinylated recombinant human FAP (human) (UniProt Q12884); experiment: SPR (Biacore)
[2] = biological target: biotinylated recombinant human FAP (human) (UniProt Q12884); experiment: SPR (Biacore), biotinylated huFAP on CAPture chip, Fab analyte
[3] = biological target: human CD40 expressed on cells (human) (UniProt P25942); experiment: flow cytometry, primary human B cells
[4] = biological target: human CD40 expressed on cells (human) (UniProt P25942); experiment: flow cytometry, Raji cells
[5] = biological target: human CD40 extracellular domain with C-terminal His-AviTag (human) (UniProt P25942); experiment: SPR, antibody captured, CD40 ECD analyte

Kd [1]: 0.279 nM | T ½ [1]: 55 min | koff [1]: 0.000208 s⁻¹ | kon [1]: 747000 M⁻¹ s⁻¹ | Kd [2]: 0.43 nM | koff [2]: 0.00078 s⁻¹ | kon [2]: 1.82e+06 M⁻¹ s⁻¹
B1: 4B9_Fab (Fab, from a related filing, V domains shown)
VH: EVQLLESGGGLVQPGGSLRLSCAASGFTFSSYAMSWVRQAPGKGLEWVSAIIGSGASTYYADSVKGRFTISRDNSKNTLYLQMNSLRAEDTAVYYCAKGWFGGFNYWGQGTLVTVSS
VL: EIVLTQSPGTLSLSPGERATLSCRASQSVTSSYLAWYQQKPGQAPRLLINVGSRRATGIPDRFSGSGSGTDFTLTISRLEPEDFAVYYCQQGIMLPPTFGQGTKVEIK

EC50 [3]: 0.333 nM | EC50 [4]: 0.09 µg/mL | Kd [5]: 4.6 nM | koff [5]: 0.00781 s⁻¹ | kon [5]: 1.69e+06 M⁻¹ s⁻¹
B2: P1AD4470, anti-CD40 control antibody (CD40 IgG1) (antibody, from a related filing, V domains shown)
VH: EVQLVESGGGLVQPGGSLRLSCAASGYSFTGYYIHWVRQAPGKGLEWVARVIPNAGGTSYNQKFKGRFTLSVDNSKNTAYLQMNSLRAEDTAVYYCAREGIYWWGQGTLVTVSS
VL: DIQMTQSPSSLSASVGDRVTITCRSSQSLVHSNGNTFLHWYQQKPGKAPKLLIYTVSNRFSGVPSRFSGSGSGTDFTLTISSLQPEDFATYFCSQTTHVPWTFGQGTKVEIKR
